As a reminder, the stoichiometry N is a count of units in the complex or per binding partner.

These results are taken from PMC2582951.

The test has as its target cerFP505 (ceriantharian fluorescent protein with an emission maximum at 505 nm) (deep sea ceriantharian (taxon Spirularia, species not determined)). The test can be described thus: SEC; elution profile of purified recombinant cerFP505; conditions as described in refs 43, 44.

Take “cerFP505 (ceriantharian fluorescent protein with an emission maximum at 505 nm) (natural protein)”: the stoichiometry N stood at 4.
